Measured values as given in publication doi:10.1101/2020.07.24.219675.

Biological target: sapC-PUMA (protein chimera of saposin C and the BH3 domain of PUMA)
Assay: NMR titration

Kd: < 310 nM | koff: < 310 s⁻¹ | stoichiometry N: 1
Substance: Bcl-xL-ΔTM (Bcl-xL without the transmembrane domain) (domain or fragment)
